According to US20200010567A1 (NEURIMMUNE, published 2020):

Key:
[1] = biological target: T1, BSA-coupled (PR)15 DPR protein peptide (bovine, conjugated via a bifunctional linker (SMCC) to bovine serum albumin); test: indirect ELISA, BSA-coupled peptide coated, antibody titrated [also D00016 FIG. 3M]
T1 construct: also called BSA-(PR)15
Protocol: (§1) In brief, dipeptide repeat proteins were synthesized and purified by Schafer-N(Copenhagen, Denmark): (GA)₁₅: H-CHHHHHH(GA)₁₅-OH; (GP)₁₅: H-C(GP)₁₅-OH; (GR)₁₅: H-C(GR)₁₅-OH; (PA)₁₅: H-C(PA)₁₅-OH; (PR)₁₅: H—C(PR)₁₅-OH. DPR protein peptides were then conjugated via a bifunctional linker (SMCC) to bovine serum albumin (BSA). 96-well microplates (Corning Incorporated, Corning, USA) were coated with BSA-coupled or -uncoupled dipeptide repeat protein peptides at a concentration of either 5 μg/ml or 20 μg/ml in coating buffer (15 mM Na₂CO₃, 35 mM NaHCO₃, pH 9.42). Non-specific binding sites were blocked for 1 h at room temperature with PBS/0.1% Tween®-20 containing 2% BSA (Sigma-Aldrich, Buchs, Switzerland). Primary antibodies were diluted to the indicated concentrations and incubated 1 h at room temperature, followed by incubation with a donkey anti-human IgG Fcγ-specific antibody conjugated with HRP (Jackson ImmunoResearch Laboratories, Inc., West Grove, USA). Binding was determined by measurement of HRP activity in a standard colorimetric assay. EC₅₀ values were estimated by non-linear regression using GraphPad Prism software (San Diego, USA).

[2] = biological target: T2, BSA-coupled (GP)15 DPR protein peptide (bovine, conjugated via a bifunctional linker (SMCC) to bovine serum albumin); test: Western blot of BSA-coupled peptides
T2 construct: also called BSA-(GP)15
T2 sequence (P02769 25-607 limits assumed): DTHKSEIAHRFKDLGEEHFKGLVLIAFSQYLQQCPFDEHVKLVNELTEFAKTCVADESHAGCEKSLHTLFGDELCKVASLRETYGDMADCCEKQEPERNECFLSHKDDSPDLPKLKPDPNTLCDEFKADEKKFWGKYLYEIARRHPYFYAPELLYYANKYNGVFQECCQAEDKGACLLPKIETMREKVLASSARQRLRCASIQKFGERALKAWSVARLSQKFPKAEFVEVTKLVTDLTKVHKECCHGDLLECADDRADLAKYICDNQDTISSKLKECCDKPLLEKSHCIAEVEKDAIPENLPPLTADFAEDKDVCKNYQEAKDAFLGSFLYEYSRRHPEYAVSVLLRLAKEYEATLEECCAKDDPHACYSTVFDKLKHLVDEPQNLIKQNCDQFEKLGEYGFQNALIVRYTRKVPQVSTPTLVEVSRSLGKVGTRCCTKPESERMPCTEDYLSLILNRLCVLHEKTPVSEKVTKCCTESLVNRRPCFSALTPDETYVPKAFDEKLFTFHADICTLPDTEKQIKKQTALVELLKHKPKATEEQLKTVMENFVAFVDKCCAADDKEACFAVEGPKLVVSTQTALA
Protocol: (§2) Resolved proteins were then electroblotted (Novex® Semi-Dry Blotter, 1 h, 25V) on methanol-activated PVDF membranes (Immobilon®-P Transfer Membrane, Merck & Cie, Schaffhausen, Switzerland) by the use of Novex® NuPAGE® transfer buffer 2× (Life Technologies Europe B.V., Zug, Switzerland). Non-specific binding sites were blocked overnight at 4° C. (or alternatively for 1 h at room temperature) with PBS/0.1% Tween®-20 containing 2% BSA (Sigma-Aldrich, Buchs, Switzerland) (PBST). […] Membranes were washed three times in PBST for 15 min at RT and then incubated with a donkey anti-human IgG Fcγ-specific antibody conjugated with HRP (1:20000 or 1:10000 dilution, Jackson ImmunoResearch Laboratories, Inc., West Grove, USA) for 1 h at room temperature. Antibody binding was determined by membrane development using ECL and ImageQuant 350 detection (GE Healthcare, Otelfingen, Switzerland).
(§3) The binding specificity of the human-derived antibodies to BSA-coupled C9orf72 dipeptide repeat proteins (GA)₁₅, (GP)₁₅, (GR)₁₅, (PA)₁₅ and (PR)₁₅ was determined by Western blot analysis.

[3] = biological target: T3, BSA-coupled (GR)15 DPR protein peptide (bovine, UniProt P02769 25-607, conjugated via a bifunctional linker (SMCC) to bovine serum albumin); test: Western blot of BSA-coupled peptides
T3 construct: also called BSA-(GR)15
T3 sequence (P02769 25-607 limits assumed): as above
Protocol: as §2, §3

[4] = biological target: T4, BSA-coupled (PA)15 DPR protein peptide (bovine, UniProt P02769 25-607, conjugated via a bifunctional linker (SMCC) to bovine serum albumin); test: Western blot of BSA-coupled peptides
T4 construct: also called BSA-(PA)15
T4 sequence (P02769 25-607 limits assumed): as above
Protocol: as §2, §3

(PR)15: H-C(PR)15-OH = biological target: T5, (PR)15: H-C(PR)15-OH; test: indirect ELISA, uncoupled peptide coated, antibody titrated [also D00016 FIG. 3M]
T5 construct: synthetic, not coupled to BSA; also called poly-PR DPR protein peptide
T5 peptide: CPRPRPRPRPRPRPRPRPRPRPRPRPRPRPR
Protocol: as §1

(PA)15: H-C(PA)15-OH = biological target: T6, (PA)15: H-C(PA)15-OH; test: indirect ELISA, uncoupled peptide coated, antibody titrated [also D00011 FIG. 2M]
T6 construct: synthetic, not coupled to BSA; also called poly-PA DPR protein peptide
T6 peptide: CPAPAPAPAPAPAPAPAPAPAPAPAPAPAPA
Protocol: as §1, with “(PR)₁₅: H—C(PR)₁₅-OH. 96-well microplates” for “(PR)₁₅: H—C(PR)₁₅-OH. DPR protein peptides were then conjugated via a bifunctional linker (SMCC) to bovine serum albumin (BSA). 96-well microplates”, “coated with dipeptide repeat” for “coated with BSA-coupled or -uncoupled dipeptide repeat”, “and incubated for 1 h” for “and incubated 1 h”, “Diego, USA). The binding specificity and EC₅₀ of human-derived antibodies for C9orf72 dipeptide repeat protein peptides (GA)₁₅, (GP)₁₅, (GR)₁₅, (PA)₁₅ and (PR)₁₅ were determined by indirect ELISA.” for “Diego, USA).”

[5] = biological target: T7, (GA)15: H-CHHHHHH(GA)15-OH; test: as above
T7 construct: synthetic, not coupled to BSA; also called poly-GA DPR protein peptide
T7 peptide: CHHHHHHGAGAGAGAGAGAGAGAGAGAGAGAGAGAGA
Protocol: as §1, with “(PR)₁₅: H—C(PR)₁₅-OH. 96-well microplates” for “(PR)₁₅: H—C(PR)₁₅-OH. DPR protein peptides were then conjugated via a bifunctional linker (SMCC) to bovine serum albumin (BSA). 96-well microplates”, “coated with dipeptide repeat” for “coated with BSA-coupled or -uncoupled dipeptide repeat”, “and incubated for 1 h” for “and incubated 1 h”, “Diego, USA). The binding specificity and EC₅₀ of human-derived antibodies for C9orf72 dipeptide repeat protein peptides (GA)₁₅, (GP)₁₅, (GR)₁₅, (PA)₁₅ and (PR)₁₅ were determined by indirect ELISA.” for “Diego, USA).”

(GR)15: H-C(GR)15-OH = biological target: T8, (GR)15: H-C(GR)15-OH; test: indirect ELISA, coated peptide
T8 construct: synthetic, not coupled to BSA; also called poly-GR DPR protein peptide
T8 peptide: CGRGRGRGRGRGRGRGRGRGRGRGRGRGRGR
Protocol: as §1, with “(PR)₁₅: H—C(PR)₁₅-OH. 96-well microplates” for “(PR)₁₅: H—C(PR)₁₅-OH. DPR protein peptides were then conjugated via a bifunctional linker (SMCC) to bovine serum albumin (BSA). 96-well microplates”, “coated with dipeptide repeat” for “coated with BSA-coupled or -uncoupled dipeptide repeat”, “and incubated for 1 h” for “and incubated 1 h”, “Diego, USA). The binding specificity and EC₅₀ of human-derived antibodies for C9orf72 dipeptide repeat protein peptides (GA)₁₅, (GP)₁₅, (GR)₁₅, (PA)₁₅ and (PR)₁₅ were determined by indirect ELISA.” for “Diego, USA).”

(GP)15: H-C(GP)15-OH = biological target: T9, (GP)15: H-C(GP)15-OH; test: indirect ELISA, coated peptide
T9 construct: synthetic, not coupled to BSA; also called poly-GP DPR protein peptide
T9 peptide: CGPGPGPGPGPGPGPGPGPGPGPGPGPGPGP
Protocol: as §1, with “(PR)₁₅: H—C(PR)₁₅-OH. 96-well microplates” for “(PR)₁₅: H—C(PR)₁₅-OH. DPR protein peptides were then conjugated via a bifunctional linker (SMCC) to bovine serum albumin (BSA). 96-well microplates”, “coated with dipeptide repeat” for “coated with BSA-coupled or -uncoupled dipeptide repeat”, “and incubated for 1 h” for “and incubated 1 h”, “Diego, USA). The binding specificity and EC₅₀ of human-derived antibodies for C9orf72 dipeptide repeat protein peptides (GA)₁₅, (GP)₁₅, (GR)₁₅, (PA)₁₅ and (PR)₁₅ were determined by indirect ELISA.” for “Diego, USA).”

T1 sequence (P02769 25-607 limits assumed): as the sequence (P02769 25-607 limits assumed) above

B1: NI-308.16C10 (antibody, V domains shown)
VH: EVQLVETGGGVVQPGMSLSLSCAATGFTFSSYGMHWVRQGPGKGPEWVAGIWYDGTNKYYGDSVTGRVTISRDNSKNTLFLQMINVRVEDTAVYYCVKDAERVQKWASYIMDVWGQGTTVTVSS
VL: EIVLTQSPGILSLSRGNRVALSCRASRSVNSSYLNWYQQKPGQAPRLLIYGASKRATGISDRFRGTGSGTDFTLTVARLEPEDIAVYYCQHYGAFGQGTKLEIK
notes: Recombinant complete human IgG1, kappa
- EC50 [1]: 91.1 nM
- binding result [2]: no binding
- binding result [3]: no binding
- binding result [4]: no binding
- EC50 ((PR)15: H-C(PR)15-OH): 3.5 nM
- binding result ((PA)15: H-C(PA)15-OH): no binding (tested: about 4x10^5 pM (last point))
- EC50 [5]: 55.1 nM
- binding result ((GR)15: H-C(GR)15-OH): no binding
- binding result ((GP)15: H-C(GP)15-OH): no binding
